According to PMC11629065:
Values belong to the molecule of their own block, whether it stands above or below them.

Experiments:
[1] = target: IL1RL1 with the extracellular risk allele (rs1041973 [C]) and the TIR signalling domain risk haplotype (rs10192157 [C]) (human) (UniProt Q01638)
[2] = target: IL1RL1 with the extracellular risk allele (rs1041973 [C]) and the protective TIR signalling domain haplotype (rs10192157 [T]) (human) (UniProt Q01638)
[3] = target: IL1RL1 with the extracellular risk allele (rs1041973 [C]) and the TIR signalling domain risk haplotype (rs10192157 [C]) (human) (UniProt Q01638); remark: listed apart in the source

IL8 in supernatant (ELISA) of HEK293 reporter cells transfected with IL1RL1; maximum as told in the text (differs from the table's cell) [1]: 28.1 pg/mL | SEAP EC50 Risk:Prot (NF-κB SEAP reporter, transfected HEK293) [2]: 0.0466 nM | IL8 EC50 (IL8 ELISA of supernatant, transfected HEK293, risk:risk haplotype) [3]: 1.5 nM | IL8 in supernatant (ELISA) of HEK293 reporter cells transfected with IL1RL1, IL33 0.0001-50 ng/mL, 24 h; IL8 ELISA maximum [3]: 28.1 pg/µL | SEAP EC50 Risk:Risk (NF-κB SEAP reporter, transfected HEK293) [3]: 0.0221 nM | SEAP activity (NF-κB reporter) in supernatant of HEK293 reporter cells transfected with IL1RL1, IL33 0.0001-50 ng/mL, 24 h; SEAP maximum (OD) [3]: 2.47 OD
Molecule: IL33 Exon 3,4 deletion variant (IL33_(Δ3,4)) (ligand)

SEAP EC50 Risk:Prot (NF-κB SEAP reporter, transfected HEK293) [2]: 0.2 nM | IL8 EC50 (IL8 ELISA of supernatant, transfected HEK293, risk:risk haplotype) [3]: 0.0698 nM | IL8 in supernatant (ELISA) of HEK293 reporter cells transfected with IL1RL1, IL33 0.0001-50 ng/mL, 24 h; IL8 ELISA maximum [3]: 24.6 pg/µL | SEAP EC50 Risk:Risk (NF-κB SEAP reporter, transfected HEK293) [3]: 0.0462 nM | SEAP activity (NF-κB reporter) in supernatant of HEK293 reporter cells transfected with IL1RL1, IL33 0.0001-50 ng/mL, 24 h; SEAP maximum (OD) [3]: 3.28 OD
B1: IL33_(112–270) (ABNOVA) (ligand)
chain: SITGISPITEYLASLSTYNDQSITFALEDESYEIYVEDLKKDEKKDKVLLSYYESQHPSNESGDGVDGKMLMVTLSPTKDFWLHANNKEHSVELHKCEKPLPDQAFFVLHNMHSNCVSFECKTDPGVFIGVKDNHLALIKVDSSENLCTENILFKLSET

SEAP EC50 Risk:Prot (NF-κB SEAP reporter, transfected HEK293) [2]: 0.0712 nM | IL8 EC50 (IL8 ELISA of supernatant, transfected HEK293, risk:risk haplotype) [3]: 0.00117 nM | IL8 in supernatant (ELISA) of HEK293 reporter cells transfected with IL1RL1, IL33 0.0001-50 ng/mL, 24 h; IL8 ELISA maximum [3]: 24.6 pg/µL | SEAP EC50 Risk:Risk (NF-κB SEAP reporter, transfected HEK293) [3]: 0.0147 nM | SEAP activity (NF-κB reporter) in supernatant of HEK293 reporter cells transfected with IL1RL1, IL33 0.0001-50 ng/mL, 24 h; SEAP maximum (OD) [3]: 3.07 OD
B2: IL33_(109–270) (ligand)
chain: HDSSITGISPITEYLASLSTYNDQSITFALEDESYEIYVEDLKKDEKKDKVLLSYYESQHPSNESGDGVDGKMLMVTLSPTKDFWLHANNKEHSVELHKCEKPLPDQAFFVLHNMHSNCVSFECKTDPGVFIGVKDNHLALIKVDSSENLCTENILFKLSET

SEAP EC50 Risk:Prot (NF-κB SEAP reporter, transfected HEK293) [2]: 0.0427 nM | IL8 EC50 (IL8 ELISA of supernatant, transfected HEK293, risk:risk haplotype) [3]: 0.00074 nM | IL8 in supernatant (ELISA) of HEK293 reporter cells transfected with IL1RL1, IL33 0.0001-50 ng/mL, 24 h; IL8 ELISA maximum [3]: 49.7 pg/µL | SEAP EC50 Risk:Risk (NF-κB SEAP reporter, transfected HEK293) [3]: 0.00699 nM | SEAP activity (NF-κB reporter) in supernatant of HEK293 reporter cells transfected with IL1RL1, IL33 0.0001-50 ng/mL, 24 h; SEAP maximum (OD) [3]: 3.79 OD
B3: IL33_(95–270) (ligand)
chain: AFGISGVQKYTRALHDSSITGISPITEYLASLSTYNDQSITFALEDESYEIYVEDLKKDEKKDKVLLSYYESQHPSNESGDGVDGKMLMVTLSPTKDFWLHANNKEHSVELHKCEKPLPDQAFFVLHNMHSNCVSFECKTDPGVFIGVKDNHLALIKVDSSENLCTENILFKLSET

SEAP EC50 Risk:Prot (NF-κB SEAP reporter, transfected HEK293) [2]: 0.0906 nM | IL8 EC50 (IL8 ELISA of supernatant, transfected HEK293, risk:risk haplotype) [3]: 29 nM | IL8 in supernatant (ELISA) of HEK293 reporter cells transfected with IL1RL1, IL33 0.0001-50 ng/mL, 24 h; IL8 ELISA maximum [3]: 42.9 pg/µL | SEAP EC50 Risk:Risk (NF-κB SEAP reporter, transfected HEK293) [3]: 0.0292 nM | SEAP activity (NF-κB reporter) in supernatant of HEK293 reporter cells transfected with IL1RL1, IL33 0.0001-50 ng/mL, 24 h; SEAP maximum (OD) [3]: 3.58 OD
B4: IL33_(99–270) (ligand)
chain: SGVQKYTRALHDSSITGISPITEYLASLSTYNDQSITFALEDESYEIYVEDLKKDEKKDKVLLSYYESQHPSNESGDGVDGKMLMVTLSPTKDFWLHANNKEHSVELHKCEKPLPDQAFFVLHNMHSNCVSFECKTDPGVFIGVKDNHLALIKVDSSENLCTENILFKLSET

SEAP EC50 Risk:Prot (NF-κB SEAP reporter, transfected HEK293) [2]: 0.189 nM | IL8 EC50 (IL8 ELISA of supernatant, transfected HEK293, risk:risk haplotype) [3]: 1.58 nM | IL8 in supernatant (ELISA) of HEK293 reporter cells transfected with IL1RL1, IL33 0.0001-50 ng/mL, 24 h; IL8 ELISA maximum [3]: 37.8 pg/µL | SEAP EC50 Risk:Risk (NF-κB SEAP reporter, transfected HEK293) [3]: 0.0135 nM | SEAP activity (NF-κB reporter) in supernatant of HEK293 reporter cells transfected with IL1RL1, IL33 0.0001-50 ng/mL, 24 h; SEAP maximum (OD) [3]: 2.6 OD
B5: IL33_(113–270) (ligand)
chain: ITGISPITEYLASLSTYNDQSITFALEDESYEIYVEDLKKDEKKDKVLLSYYESQHPSNESGDGVDGKMLMVTLSPTKDFWLHANNKEHSVELHKCEKPLPDQAFFVLHNMHSNCVSFECKTDPGVFIGVKDNHLALIKVDSSENLCTENILFKLSET
